Assay results taken from the supplement of paper PMC9170038.

System: MS2 coat protein
Test: apparent KD of MS2 coat protein; designed switch direction (-1 OFF switch, 1 ON switch): 1; higher = weaker reporter binding
Summary of the method: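 Designed RNA switches were transcribed on Illumina chips by stalled E. coli RNA polymerase and titrated with SNAP-549-labelled MS2 coat protein from 0.7 or 1.5 nM, doubling to 3 µM. Step length ran from 0.8–1.5 h at the lowest concentration to 10–20 min at the highest. The apparent KD is the median over clusters for each design, from curve-fitted normalised cluster fluorescence.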

[1] = Eterna round: R95, input ligand: FMN 200 uM
[2] = Eterna round: R95, input ligand: microRNA oligo, concentration not stated
[3] = Eterna round: R95, input ligand: none
[4] = input ligand: microRNA oligo, concentration not stated

GGUCCAGCCUGAGCUGGACAAAAGCAUGUACAUGAGGAUCACCCAUGUUCAUGUACAAGCUUUUUGCUCGUCUUAAU [salish99_208a_r3_036] (puzzle: Sensor for hsa-mir-208a)
apparent KD of MS2 coat protein [1]: 525 nM
apparent KD of MS2 coat protein [2]: 15 nM
apparent KD of MS2 coat protein [3]: 492 nM

UACUGAGUCGUAGGAUAUGUAGGAUAUGGCGAGAGCUAAGCUUGGAAGUCACUUCUGCCAGAAGGACAGAAGGACGACUCUCUC [pwkr ssNG2 2FMN + F9.14] (Eterna round: R96, puzzle: Same State NG 2)
apparent KD of MS2 coat protein (input ligand: FMN 200 uM): 705 nM
apparent KD of MS2 coat protein [4]: 237 nM
apparent KD of MS2 coat protein (input ligand: none): 55.5 nM

AUCAUUAAUGCAGGAUAUGAUUAACAUGAGGAUCACCCAUGUGGUGUUGUGAGUAAGGAGAGUGAUCAGAAGGGCAUUUUUUUU [JMF's solution 35] (Eterna round: R96, puzzle: Same State NG 2)
apparent KD of MS2 coat protein (input ligand: FMN 200 uM): 699 nM
apparent KD of MS2 coat protein [4]: 292 nM
apparent KD of MS2 coat protein (input ligand: none): 469 nM

CGGAAAAUCGUAGGAUAUCUAGGAUAUGAACGAGGAUCACCCGAGCAGCAUCAGCGCAUCAGAGGAGAGAAGGACGAUGAUGCG [pwkr ssNG2 2F5 2FMN.5] (Eterna round: R96, puzzle: Same State NG 2)
apparent KD of MS2 coat protein (input ligand: FMN 200 uM): 1930 nM
apparent KD of MS2 coat protein [4]: 1100 nM
apparent KD of MS2 coat protein (input ligand: none): 1510 nM

AAUUAAGAUUGAGGAUAUCACGUCGAUUAGACGUGAGAAGGCGAUCAUAACAUGAGGAUCACCCAUGUAUUACAUGAAUUAAUU [SSNG1/5-B2] (Eterna round: R96, puzzle: Same State NG 1)
apparent KD of MS2 coat protein (input ligand: FMN 200 uM): 31.9 nM
apparent KD of MS2 coat protein [4]: 26.2 nM
apparent KD of MS2 coat protein (input ligand: none): 36.6 nM

GGACGUCAUCUCAAUAAUUAAACAUGAGGAUCACCCAUGUCACAGGAUAUGGAUCCUAAUUGGAUCCAGAAGGGUGUGACGUCC [Fiskers NG3ss - 40] (Eterna round: R96, puzzle: Same State NG 3)
apparent KD of MS2 coat protein (input ligand: FMN 200 uM): 54.3 nM
apparent KD of MS2 coat protein [4]: 56 nM
apparent KD of MS2 coat protein (input ligand: none): 66.1 nM

GAGGGACAGACCAACAUGAGGAUCACCCAUGUCCUCGCAGUUCAGGAUAUCCGGAGGUAGACGAAGGAGAAGGGAAGGUGAACC [AK SSNG3-V2-36] (Eterna round: R96, puzzle: Same State NG 3)
apparent KD of MS2 coat protein (input ligand: FMN 200 uM): 266 nM
apparent KD of MS2 coat protein [4]: 382 nM
apparent KD of MS2 coat protein (input ligand: none): 207 nM

GAUAAACAUGAGGAUCACCCAUGUAAUAAUAUGGGAGGAUAUCAGAAUGUAUGUAUGUAAUGAGAAGGCCUAAAUG [Mat - Same State 1 - Mod of Eli - D73] (puzzle: Same State 1)
apparent KD of MS2 coat protein [1]: 104 nM
apparent KD of MS2 coat protein [2]: 425 nM
apparent KD of MS2 coat protein [3]: 309 nM

GGAUGAUUAAUAGGAUAUUAUUUGUAAUUUGGUUAAGAAGGAUUAAUGAUUUAAACGACCUGUUACAUGAGGAUCACCCAUGUU [JR_SSNG1_Sub089] (Eterna round: R96, puzzle: Same State NG 1)
apparent KD of MS2 coat protein [4]: 76.5 nM

CUGAGGAAGAGAGAGGAUAUCCAAAGGAAAACAUGAGGAUCACCCAUGUAAAAGGUAGGAAAUUGGGAGAAGGCUCAAGAGAGAG [salish99-ss2-068] (Eterna round: R96, puzzle: Same State 2)
apparent KD of MS2 coat protein (input ligand: FMN 200 uM): 32.3 nM
apparent KD of MS2 coat protein [4]: 38.3 nM
apparent KD of MS2 coat protein (input ligand: none): 39.3 nM

AGUCCAGCCUGAGCUGGACAAAAGCAUGUACAUGAGGAUCACCCAUGUCGUGUACAAGCUUUUUGCUCGUCUUAAAA [Zipper 46 - 5] (puzzle: Sensor for hsa-mir-208a)
apparent KD of MS2 coat protein [1]: 376 nM
apparent KD of MS2 coat protein [2]: 12.4 nM
apparent KD of MS2 coat protein [3]: 334 nM

CGCAGGCACGUAGGAUAUCUAGCGUGGGAGGCUAGAGAAGGAUGGAAUAACAUGAGGAUCACCCAUGUCGCCUCGCGGAAAUAA [Diorverire] (Eterna round: R96, puzzle: Same State NG 1)
apparent KD of MS2 coat protein (input ligand: FMN 200 uM): 15.5 nM
apparent KD of MS2 coat protein [4]: 17.4 nM
apparent KD of MS2 coat protein (input ligand: none): 32.8 nM

UUGAUGUACUGAGGAUAUCGUGUCGUCUGAUUUUACAUGAGGAUCACCCAUGUGGGUUGUGGUAUCGAGAAGGCAGUUUUCUUA [JR_SSNG2_Sub029] (Eterna round: R96, puzzle: Same State NG 2)
apparent KD of MS2 coat protein (input ligand: FMN 200 uM): 50.4 nM
apparent KD of MS2 coat protein [4]: 84.3 nM
apparent KD of MS2 coat protein (input ligand: none): 158 nM

GUGGCGGGUUGAGGAUAUUGGUUGCAUAUGUUUAACAUGAGGAUCACCCAUGUGGGUUGCGGUUUCGAGAAGGUAGGUUGCUGG [salish99_SSNG2_r04_044] (Eterna round: R96, puzzle: Same State NG 2)
apparent KD of MS2 coat protein (input ligand: FMN 200 uM): 155 nM
apparent KD of MS2 coat protein [4]: 95.3 nM
apparent KD of MS2 coat protein (input ligand: none): 140 nM

AUGAAGAAUUAAGGAUAUUGAUUACAUAUGUUUAACAUGAGGAUCACCCAUGUGGGUUGCGGUAUCGAGAAGGUAAAUUAAUAG [Mat - same State NG 2 - JL mod - D84] (Eterna round: R96, puzzle: Same State NG 2)
apparent KD of MS2 coat protein (input ligand: FMN 200 uM): 187 nM
apparent KD of MS2 coat protein [4]: 129 nM
apparent KD of MS2 coat protein (input ligand: none): 196 nM

GCUCGACGUGUUGUCUACAUGAGGAUCACCCAUGUAGGUGCGGAGGAUAUCUACGUGCUUUAUGUAGAGAAGGUCGUGUCGAGC [SameState NG3 #87] (Eterna round: R96, puzzle: Same State NG 3)
apparent KD of MS2 coat protein (input ligand: FMN 200 uM): 32.4 nM
apparent KD of MS2 coat protein [4]: 55.3 nM
apparent KD of MS2 coat protein (input ligand: none): 66.4 nM

AACAAUCUAUCUGAGGAUAUCAUGAAUAAAACAUGAGGAUCACCCAUGUGCAGGAAAACUGCAUAUGAGAAGGCAGAUAGAUUGU [Mat - Same State 2 - Mod - D11] (puzzle: Same State 2)
apparent KD of MS2 coat protein [1]: 69.3 nM
apparent KD of MS2 coat protein [2]: 2610 nM
apparent KD of MS2 coat protein [3]: 2140 nM

AGAUCAUGACGAGGAUAUGGAACAUGAGGAUCACCCAUGUAUGUUCCAUAACGCGAAUAAAGAAUCCAGAAGGCGUCGUGGUCA [Mat - Same State NG 2 - JL mod - D30] (Eterna round: R96, puzzle: Same State NG 2)
apparent KD of MS2 coat protein (input ligand: FMN 200 uM): 10.2 nM
apparent KD of MS2 coat protein [4]: 78.9 nM
apparent KD of MS2 coat protein (input ligand: none): 89.1 nM

GCAAUGGCGGUAGGAUAUCUAGGAUAUGGGAAAGACUAAGUCUGUAGGUCACCUAACCCAGAAGGAGAGAAGGACCCUGUAAGG [pwkr ssNG2 2FMN + F9.24] (Eterna round: R96, puzzle: Same State NG 2)
apparent KD of MS2 coat protein (input ligand: FMN 200 uM): 43.2 nM
apparent KD of MS2 coat protein [4]: 9.31 nM
apparent KD of MS2 coat protein (input ligand: none): 30.8 nM

UGCCUGAGUCGAGGAUAUUAUGGAUCCUCUAAUACAUGAGGAUCACCCAUGUAAUUAAUUAUACAUGAGAAGGCGACUCAGGCA [SSNG2/12-A2] (Eterna round: R96, puzzle: Same State NG 2)
apparent KD of MS2 coat protein (input ligand: FMN 200 uM): 278 nM
apparent KD of MS2 coat protein [4]: 6.26 nM
apparent KD of MS2 coat protein (input ligand: none): 66.2 nM

GAAAAGACAUGAGGAUCACCCAUGUGAAAGCCUAAGGGCCCACAGGAUAUACAGUGAAAAGCACUGUAGAAGGGUGAUAAAGAC [Ordibidi] (Eterna round: R96, puzzle: Same State NG 3)
apparent KD of MS2 coat protein (input ligand: FMN 200 uM): 228 nM
apparent KD of MS2 coat protein [4]: 271 nM
apparent KD of MS2 coat protein (input ligand: none): 172 nM

UGCUAGUGGGUAGGAUAUUUAGGAUAUGCGGAAGACUAAGUCUGUAGGUCACCUAACGCAGAAGGAGAGAAGGACCCUUCAGCU [pwkr ssNG2 2FMN + F9.29] (Eterna round: R96, puzzle: Same State NG 2)
apparent KD of MS2 coat protein (input ligand: FMN 200 uM): 143 nM
apparent KD of MS2 coat protein [4]: 16.8 nM
apparent KD of MS2 coat protein (input ligand: none): 12.8 nM

AAUCGUUUGAUAGGAUAUCGCUAUACAUGAGGAUCACCCAUGUUUACCACGCUGGUUUUUCGUACUGAGAAGGAUUCUGAUGAU [JL JR sub007 mod 7] (Eterna round: R96, puzzle: Same State NG 2)
apparent KD of MS2 coat protein (input ligand: FMN 200 uM): 36.1 nM
apparent KD of MS2 coat protein [4]: 30.4 nM
apparent KD of MS2 coat protein (input ligand: none): 42.5 nM

GCCGAACAUGAGGAUCACCCAUGUCUGGGUAAUCAAGGAUAUGGGAAGGCUUUGCCAUGACCAGAAGGUGGUUAUC [Zari] (Eterna round: R96, puzzle: Same State 1)
apparent KD of MS2 coat protein (input ligand: FMN 200 uM): 26.3 nM
apparent KD of MS2 coat protein [4]: 38.9 nM
apparent KD of MS2 coat protein (input ligand: none): 53.5 nM

GCCGCACAUGAGGAUCACCCAUGUAAUUACAUGGGAGGAUAUCAGUGCUCGAAAGAGCACUGAGAAGGCCUGAGGC [SS1 - Omei A v1] (Eterna round: R96, puzzle: Same State 1)
apparent KD of MS2 coat protein (input ligand: FMN 200 uM): 887 nM
apparent KD of MS2 coat protein [4]: 42.4 nM
apparent KD of MS2 coat protein (input ligand: none): 74.8 nM

UUCACCUUAUUUUACAUGAGGAUCACCCAUGUUUUUUUUACGUAGGAUAUCGAUGCUUGUUUAUUCGAGAAGGACGAUGUAAGU [JR_SSND3_Sub053] (Eterna round: R96, puzzle: Same State NG 3)
apparent KD of MS2 coat protein [4]: 28 nM

AGGGAGGAAGCUGAGGAUAUCGUAGGGAGGACAUGAGGAUCACCCAUGUGUAUAGAAUUGGAGGACGAGAAGGCAGAGGAGUGGG [JR_SS2_Sub051] (puzzle: Same State 2)
apparent KD of MS2 coat protein [1]: 56.6 nM
apparent KD of MS2 coat protein [2]: 58.5 nM
apparent KD of MS2 coat protein [3]: 58.2 nM

CGCAAAGUGUGAGGAUAUUCACACAUGAGGAUCACCCAUGUGACGGUUCCGGCCAGAGGAGAGCAGGAGAAGGCACAACGCGAG [Eternabot solution 5] (Eterna round: R96, puzzle: Same State NG 2)
apparent KD of MS2 coat protein (input ligand: FMN 200 uM): 36.1 nM
apparent KD of MS2 coat protein [4]: 101 nM
apparent KD of MS2 coat protein (input ligand: none): 120 nM

AGUCCAGCCUGAGCUGGACAAAAGCAUGUACAUGAGGAUCACCCAUGUCAUGUACAAGCUUUAUGCUCGUCUUAAAA [Mat - hsa-mir-208a - Mod of JL - D15] (puzzle: Sensor for hsa-mir-208a)
apparent KD of MS2 coat protein [1]: 224 nM
apparent KD of MS2 coat protein [2]: 15.6 nM
apparent KD of MS2 coat protein [3]: 298 nM

GUGAAGAAUUAAGGAUAUCGAGUCAAGAUGUUAAACAUGAGGAUCACCCAUGUGGGUUGCGGUAUCGAGAAGGUAAAUUACGGG [salish99_SSNG2_r04_503] (Eterna round: R96, puzzle: Same State NG 2)
apparent KD of MS2 coat protein (input ligand: FMN 200 uM): 34.6 nM
apparent KD of MS2 coat protein [4]: 27.6 nM
apparent KD of MS2 coat protein (input ligand: none): 33.2 nM
